For this experiment, the target named is T1, His-KDM4A_(1–359)-Bio (human, UniProt O75164 1-359, biotin on the AviTag (>95% biotinylation)).
T1 chain: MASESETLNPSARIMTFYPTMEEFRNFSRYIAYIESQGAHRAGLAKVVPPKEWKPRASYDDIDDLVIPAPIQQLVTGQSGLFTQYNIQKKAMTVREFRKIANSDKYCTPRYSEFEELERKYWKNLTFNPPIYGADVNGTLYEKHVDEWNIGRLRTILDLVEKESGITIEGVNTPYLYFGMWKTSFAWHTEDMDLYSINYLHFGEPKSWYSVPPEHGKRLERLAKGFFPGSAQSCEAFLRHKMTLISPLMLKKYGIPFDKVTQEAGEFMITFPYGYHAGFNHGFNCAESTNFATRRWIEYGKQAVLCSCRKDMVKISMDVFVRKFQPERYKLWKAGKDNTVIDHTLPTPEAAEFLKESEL
Kind of experiment: BLI.

The molecule ARTKQTARKSTGGKA (trimethyl-lysine at 9) [H3(1–15)K9me3] yielded a Kd of 110 µM.

Source of the values: publication PMC5384220 (2017).
